Reference: publication doi:10.1101/2021.03.29.437529

Columns and labels:
[1] = target: PniDAH7PS, the C-terminal CM-linked 3-deoxy-D-arabino-heptulosonate 7-phosphate synthase (DAH7PS) from Prevotella nigrescens, wild type (Prevotella nigrescens); test: SEC-SAXS
[2] = target: PniDAH7PS^Δ5AA, a truncated PniDAH7PS variant with removal of C327-T331 residues (Prevotella nigrescens); test: SEC-SAXS

Row | Substance | stoichiometry N [1] | stoichiometry N [2]
1 | PniDAH7PS, the C-terminal CM-linked 3-deoxy-D-arabino-heptulosonate 7-phosphate synthase (DAH7PS) from Prevotella nigrescens, wild type (enzyme) | 2 | –
2 | PniDAH7PS^Δ5AA, a truncated PniDAH7PS variant with removal of C327-T331 residues (enzyme) | – | 2
